The nature of the data set: label from the status in PepcDB records.
Take “MDYPVWQLWGINGGLLVAIISVLHVFVAQFAVGGGFLLVHAATRAERAGSAEATFWVKRFTRFFLLLSMVFGGVSGVGIWVIISLISPAATSLLVHRFVYAWATEWVFFLGEIVALLVYYYGFGKMRFEDHRNVGLLYGLFAYLSLFMINGIITFMLTPGAWMQTQGFWDGFFNPTFWPSLLFRSALCAMLSGLFGLVWASLIDDERARELMTGVTRLWALVPIPFMAVGAWWYLGALPAPQLEMVLRRTADIRPFLEAFPWVLAALMVGGLAFFTRLPSGARVPVAALLLVLGLCQVGTFEWVRETGRRPWIVHGVIWSNGITPEAGAKSDLEGMLKVARWSGVKQVAEANMHEAGRELWQVQCANCHGLGAPMIDILPRIANRPLTGVEALITGQGALQGYMPPFVGTPAERRALATYLVNERDARRH”: the protein production result is listed as “failed”.
For “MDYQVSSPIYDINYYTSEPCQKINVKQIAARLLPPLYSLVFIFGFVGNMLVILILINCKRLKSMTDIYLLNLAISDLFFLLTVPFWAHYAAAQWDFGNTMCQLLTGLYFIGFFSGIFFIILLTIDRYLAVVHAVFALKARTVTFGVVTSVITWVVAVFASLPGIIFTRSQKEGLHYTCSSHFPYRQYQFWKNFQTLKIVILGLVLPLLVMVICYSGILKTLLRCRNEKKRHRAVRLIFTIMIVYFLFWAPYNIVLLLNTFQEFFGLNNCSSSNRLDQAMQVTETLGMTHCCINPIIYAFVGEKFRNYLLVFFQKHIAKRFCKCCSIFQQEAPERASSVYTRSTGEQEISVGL”, the protein production entry is “not failed”.
The same measure for “MDYSIADCLAANQYTTACCIVQSWTRGEVLLSSYQRVALFIFFDSIEKDLVTHIRSLAGLVTTGFLSAQERDKAAQRAEKSDEPGTVAKDDFELLYQLDLGDKIAIAQRLKQHFGDAFRKHFSAKAASLQAAVPVRNSVMHGRPLTVEEHATAFALANDLVKSNGFWPVLHKALVDYNTDPEAITRRAVSFLEHPSEGGIFHNLPLPDYDDTGFVPRPQLEQELKKKILSRHPVVTVLGDGGNGKTALTVQALYSLVNSGDHDFDAIVWVSAKSSKLTVGEIQRIEHAITTSMGLFEEVVGIFEEDKSNPMSRVRQLLENNKILLAIDNLETVLDDTIRDFVSDIPGQSKVVLTSRIPVGGDLTVEVKPLTDNEGEIYLRALIKSYSIKTLSSLRQDELRYFASRLERRPLLLKWFCMGVIAGLPASKIVSNPEMALRFCLENVFDALSPDATMTLSLMSILPRAVSLGVLHYVSSTDIRKLEAGVAELLKFSILETENQSGYELNYRIKPFARAYVARILRLTAEAQEAVIRKFRGLSFAYQAERGAEGQEKYNFRNFTVRSISEALAAGKLREAVKLAYNDEFEAANAIIDTLKVSNHDYFEVFRTDAFIRFRQHDFAGATDAYRSALELSPETPQLYFFFGGFLLRGYGDCPAAIAQFEEALKRDPESTDVKRELARAKMFDYDFEGAMKILSLERTKPLSNMRTQLIFADLQTQNFQRMITHKSAVGIDADLEAPCSAFADFLVTLDPRIVDSKMTEHLRKARSSIVQALHTRSVRAGARVVALLDKLIGELEASRDDTTDHCASASGLLGTLKEKGRKPNFGFLVDRSNREYFVARAMVSDLVWEGLEGGKIASFEVELDNQGRPRATNVYLI”: “failed”.
Consider “MDYVVSYLSIEFGLCFILFFVLYWGLGFSLRLQNVLLLVASYAILASFSLNFLYILLGYTALVYLLGLLSQRYPGRGWVNGLMLLLVLGAFYLFKYQDFFTSTVQNAFAQFGVEVSLPLLEVLLPVGLSFYAFHSVSYLVSINRRELTPGSPFDLALYLAFFPSLIAGPVNRAIPMLAQINPPQLRQVLEPQRALGLIAVAVVKLFFLSSWLANEWVDPVFDSPVAYSAEQILRAVYGYSFLIYFNFSGYTDLVTGIALLLGFRLPQNFNYPYAARNLKEFWGRWHISLSTFIRDYVYIPLGGNRGPVWRGNLNMLLAMLISGLWHGASANFIIWGALHGIGLALYKLCSPLLARGPSWIGADLMARLLTFHYVAFAWIFFRCATLSDAMDMLKGLGELSLGGLLGGGASLLGCLLFVAFYPRIVALLRRLFDAATGLPWLFYPVPLGLFICVVIFASPSGVPGFIYASF”, for which the protein production entry is “failed”.
The same measure for “MEAETKTLPLENASILSEGSLQEGHRLWIGNLDPKITEYHLLKLLQKFGKVKQFDFLFHKSGALEGQPRGYCFVNFETKQEAEQAIQCLNGKLALSKKLVVRWAHAQVKRYDHNKNDKILPISLEPSSSTEPTQSNLSVTAKIKAIEAKLKMMAENPDAEYPAAPVYSYFKPPDKKRTTPYSRTAWKSRR”: “failed”; for “MEAIDQLVGQWQKDGLSPSQVAEKFSKCVLYVTCEPCIMCASALSFLGIKEVYYGCPNDKFGGCGSILSLHLGSEEAQRGKGYKCRGGIMAEEAVSLFKCFYEQGNPNAPKPHRPVVQRERT”: “failed”; for “MEAIRVFGPKLGSRLSIRSHTTAFPACKLSRFPLTSFPGKHAHLVLLKATTIPLASGDKENNRKFEKLGPSEWGNQFLFAHVDLSEMDALEREIEALKPKVRDMFMSFKGMKSNKKNLFLIYLLVSLGLAHHFEDEIEESVKGCSQEMVEMMDGENDLYTVSIIFWVFRTYGHNISSDIFNRFKGHNGKFKECLATDAKGILSLYEAAHMGTTTDYILDEALSFTLSYLESLAANGTCKPNLVRRIRNALGLLQNKNVEILVAKEYIRFYEQEEDCDKTILEFSMLNLKFLQLHYLQELKLLTKWYKEQDFESKLPPYYRDRIVELHLATLAYINPKYSRVRIILTMIYTIQIILDDTCDRYASLREVESLAATIERWDHNDHAMEGLPDYLKSVAKFIFHTFQEFEREVSSESGGSYSLKATIEDCKRMMRSNLQLAKWAVTGHLPSFDEYLDVAGVEIAVYFTVAGILLGMENINKKEAYEWLIFRDKLVRAMSTKARLVNDLFGYKDDMRRGYVTNSINCYKKQYGVTEEEAFRKLHQMVADGDKMMNEEFLKPINVPHQVLKAVLDTLRAINICYDNEDGFTRLNGNLKNYITSMYVDL”: “failed”.
As for “MEAKLSSIEIPVGQDELSGTLLTPTGMPGVLFVHGWGGSQHHSLVRAREAVGLGCICMTFDLRGHEGYASMRQSVTRAQNLDDIKAAYDQLASLPYVDAHSIAVVGLSYGGYLSALLTRERPVEWLALRSPALYKDAHWDQPKVSLNADPDLMDYRRRALAPGDNLALAACAQYKGDVLLVEAENDVIVPHPVMRNYADAFTNARSLTSRVIAGADHALSVKEHQQEYTRALIDWLTEMVVGRRIALAKEVVAARKQLLKEQQGDAVSLPGQGSREFRGDIRAVEKTSA”, the protein production entry is reported as “not failed”.
Consider “MEAVLNELVSVEDLKNFERKFQSEQAAGSVSKSTQFEYAWCLVRSKYNEDIRRGIVLLEELLPKGSKEEQRDYVFYLAVGNYRLKEYEKALKYVRGLLQTEPQNNQAKELERLIDKAMKK”, for which the protein production entry was “not failed”.
For the sequence “MEDAAAPGRTEGVLERQGAPPAAGQGGALVELTPTPGGLALVSPYHTHRAGDPLDLVALAEQVQKADEFIRANATNKLTVIAEQIQHLQEQARKVLEDAHRDANLHHVACNIVKKPGNIYYLYKRESGQQYFSIISPKEWGTSCPHDFLGAYKLQHDLSWTPYEDIEKQDAKISMMDMLLSQSVALPPCTEPNFQGLTH”, the protein production entry is on record as “failed”.
On to “MEDETLGFFKKTSSSHARLNVPALVQVAALAIIMIRGLDVLMIFNTLGVRGIGEFIHRSVQTWSLTLVFLSSLVLVFIEIWCAFSLVKGRRWARWLYLLTQITAASYLWAASLGYGYPELFSIPGESKREIFHSLMLQKLPDMLILMLLFVPSTSRRFFQLQ”, for which the protein production entry is “failed”.
Under “MEDGKQAINEGSNDASPDLDVNGTILMNNEDFSQWSVDDVITWCISTLEVEETDPLCQRLRENDIVGDLLPELCLQDCQDLCDGDLNKAIKFKILINKMRDSKLEWKDDKTQEDMITVLKNLYTTTSAKLQEFQSQYTRLRMDVLDVMKTSSSSSPINTHGVSTTVPSSNNTIIPSSDGVSLSQTDYFDTVHNRQSPSRRESPVTVFRQPSLSHSKSLHKDSKNKVPQISTNQSHPSAVSTANTPGPSPNEALKQLRASKEDSCERILKNAMKRHNLADQDWRQYVLVICYGDQERLLELNEKPVIIFKNLKQQGLHPAIMLRRRGDFEEVAMMNGSDNVTPGGRL” stands “failed”.
With “MEDIVHKYKVSVIICFFNSAETLDAMIKDAVNQTLKDKEIILIDDGSYDGSLEIAEKYANKYSFIKIFSQKNMGLSASRDKGLSEAQGEYVIYWDGDDSVESTMLEVLYNRAKADNSDIVCSQFYIYFLAINVKRKSLLPFPNYPLTGKEAFKNLLFTVYATFGRKNFVVGTLWDKLIRRELILKNNIRQQNVVFEDIVFVMQIFLKASKVSFVNNYFYTNFQRMGSMSSSISVLHKSKLSLNTMETLLKREGIFNECQNLYKKFFLQFYYFISFKQIYIISWNISDKLVYRAYKEKLISVLDEIKGLSEFQDCYEYAKSFGFNEIQILPRIMLKIWNFSSRLYVNFSIFIYKFFIKN”, the protein production entry was “failed”.
For “MEDIYKLIDDINLQKIENLDSRVNEALSSNNDDALFILGETLYNFGLTPQGLEVFRTLYHKYPDESELLIYFIEGLMSENQTDEALEYLAQVEPSTEKLMLEADLYQQINMLEVAIDKLQEALDLEPNDPIIHFALAELLYYDGQYLRATREYETVLETGEYEVNGVNIFSRMADCSLQSGNYSDAISLFDEINEEEMNSEDYFKKSIAYEKNDLTQEAIKIMQTLLSKDPDFIQGYFYLQSLFENEKNYPDAIETGKEGLRLSQFYKELMVSTGSLEIEHGDANEGVELLKQALEVDNAYHEPLLILSDLYRNEEDYESIIQLLTYVDEEDLDPIFMWHLAYAYGQEERDKEAQHFFELAYPTLQTQVEFLSDYYFYLLEIGQKEKAILILNQLLEIDPSNENWHDESMRLQI”, the protein production result is “failed”.
Under “MEDLKGSHGLGLKIQLSRVCEVKPEVKPLPAGETPSCGFARLDRRCLCGHRATLIPLGLPIAPRPPPSRCPFLKPSLPYVPGPEYGKQRPSCPVPIMSEVTKELLELVWGTKSSPGLSDTIFCRWTQGFVFSDSEGSALEQFEGGPCAVIAPVQAFLLKKLLFSSEKSSWRDCSEDEQKELLCHTLCDILESACDSSGSYCMVSWLRGRTTEDAARISGSPAQSSCQVGHSSALAVEELGFERFHALIQKRSFRTVSELKDAVLDQYSMWGNKFGVLLFLYSVLLTKGIENIKNSIEDANEPLIDPVYGHGSQSLINLLLTGHAVSNVWDGDRECSGMQLLGIHEQATVGFLTLMEALRYCKVGSYLKSPKFPIWIVGSETHLTVFFAKDMALVAPEAPSEQARRVFQTYDPEDNGFIADTLLEDVMKALDLVSDPEYINLMKNKLDPEGLGIILLGPFLQEFFPDQGSSGPESFTVYHYNGLKQSNYNEKVMYVEGTAVVMGFEDPMLQTDDTPIKRCLQTKWPYIELLWTTDRSPSLN” stands “failed”; under “MEDPLGRLEWIKFLSAFYDKEDKAENYFNQQVSKVMATENKVSSLKKPKVAFGMVDNGKVYIPAKNSYAAKMVDMAGGDYIFKDLNNKSGYITLEDFYSKSKDADVLIYSSSKEYTPSLKSMLSAAPILKTIKPVKNKKVWCFGKDYYQAIDKTDEIIEDLASIFHPESFKGYKIKHYSHLEHHHHHH”, “not failed”; under “MEDRIPVIKRFTGGGTVIVDKSTLFVSLICNKDDVPNVQPYPRSVMAWSGSLYDEVFKSVNGFQLRENDYVFGDRKFGGNAQSIIKNRWIHHTSFLWDYDVRNMAYLKLPSRVPQYRLERDHTDFVCRMKDYIERSDFVEKTVKAVRNQFTLKQVNLEDIDSYAKGGYLKTTRLLTMEELEEAMADTIQNT”, “failed”.
Under “MEDSTATATSSSSTHYFSIFTNYPLISAVTSFTIAQFIKLFTSWYRERRWDLKQLIGSGGMPSSHSATVTALAVAIGLQEGFGGSHFAIALILASVVMYDATGVRLHAGRQAEVLNQIVYELPAEHPLAESRPLRELLGHTPPQVCRHMT” stands “failed”.
Regarding “MEEAKGPVKHVLLASFKDGVSPEKIEELIKGYANLVNLIEPMKAFHWGKDVSIENLHQGYTHIFESTFESKEAVAEYIAHPAHVEFATIFLGSLDKVLVIDYKPTSVSL”, the protein production entry is recorded as “not failed”.

The values are drawn from a protein production outcome set (Wang et al. 2014).
